Sequences and labels used below:
B1: GST-iBox (Inka1 166–203) (domain or fragment)
chain: EAEDWTAALLNRGRSRQPLVLGDNCFADLVHNWMELPE
modifications: GST carrier left out. Limits 166-203 are the paper's, taken from the 4XBR fusion: Flag/SGS 1-12, iBox 13-50, EF linker 51-52, PAK4 278-591 from 53 (12+38+2+314=366). Entity position = paper number - 153 (F191=F38, L194=L41, V195=V42, P(0)=P30). The paper's Inka1 numbering may differ from UniProt Q96EL1 (paper's C-terminus is 285, entry is 287 aa).
B2: iBox-C24 (peptide)
chain: VSRFAALMSCRSRQPIICNDVSYL
modifications: synthetic peptide; exact limits are only in Fig. 1d; taken as the last 24 residues because the text gives a 24mer of iBox-C (C-terminal 22 aa of Inka1)
B3: iBox24C (peptide)
chain: SRQPLVLGDNCFADLVHNWMELPE
modifications: synthetic peptide; taken as the C-terminal 24 residues (paper numbering 180-203) of the 38-aa iBox; 4XBR position = Inka1 paper number minus 153; exact limits are only in Fig. 1d

Sequence of 6His–PAK4cat (PAK4 286–591) (O96013 286-591): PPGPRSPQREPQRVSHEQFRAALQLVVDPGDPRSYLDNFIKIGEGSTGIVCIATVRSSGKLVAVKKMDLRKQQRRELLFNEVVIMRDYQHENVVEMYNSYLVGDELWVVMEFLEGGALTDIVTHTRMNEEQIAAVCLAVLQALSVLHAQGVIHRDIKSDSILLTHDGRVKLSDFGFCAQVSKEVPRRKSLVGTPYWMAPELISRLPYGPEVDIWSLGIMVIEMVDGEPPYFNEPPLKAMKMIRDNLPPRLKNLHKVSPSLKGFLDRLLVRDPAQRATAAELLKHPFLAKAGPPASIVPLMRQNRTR

This assay concerns the target 6His–PAK4cat (PAK4 286–591) (human, UniProt O96013 286-591). Description: kinase activity inhibition (GST-Raf13 phosphorylation).
By IC50 is commonly meant the concentration that inhibits the measured activity by half. As to B1, the concentration for half-maximal inhibition (IC50) was found to be 36 nM.
For the molecule B2, the IC50 was determined as 300 nM.
B3 returned a concentration for half-maximal inhibition (IC50) of 382 nM.
The figure for AEDWTAALLNRGRSRQPLVLGDW [iBox 23mer synthetic peptide] is 229 nM.
